# Columns and labels:
# [1] = molecular target: FG repeat domain of 669 residues with non-charged spacers and 36 FSFG motifs; assay: partitioning into an FG phase (confocal laser scanning microscopy); as a1 but FG phases assembled from the SLFG or the FSFG repeat domain (stocks in 4 M guanidinium hydrochloride, diluted 50-fold)
# [2] = molecular target: Nup98-type FG domain comprising 52 perfect 12-mer GLFG repeat units (prf.GLFG52x12); assay: FG phase partitioning assay
# [3] = molecular target: Nup98-type FG domain comprising 52 perfect 12-mer GLFG repeat units (prf.GLFG52x12); assay: FG phase partitioning assay; remark: listed apart in the source
# [4] = molecular target: Nup98-type FG domain comprising 52 perfect 12-mer GLFG repeat units (prf.GLFG52x12); assay: FG phase partitioning assay; remark: listed apart in the source
# [5] = fluorescence intensity at rim of FG particles
# [6] = fluorescence intensity in center of FG particles
# [7] = signal in center of FG particles
substance,measurement,setting,value
"20-nm pentamer-only spheres of CA A92E (CA P1A+G60A+G61P background), EGFP-labelled (complex)",fold reduction of partitioning against WT,[1],< 100 fold
"20-nm pentamer-only spheres of CA G94D (CA P1A+G60A+G61P background), EGFP-labelled (complex)",fold reduction of partitioning against WT,[1],< 100 fold
"20-nm pentamer-only spheres of CA H87Q (CA P1A+G60A+G61P background), EGFP-labelled (complex)",fold reduction of partitioning against WT,[1],< 100 fold
"20-nm pentamer-only spheres of CA Q9E (CA P1A+G60A+G61P background), EGFP-labelled (complex)",fold reduction of partitioning against WT,[1],< 100 fold
"CLPs of CA G89V, filled with sinGFP4a (complex)",fold partitioning against wild type,[1],4 fold
"conical CLPs (capsid-like particles) of wild-type CA (CA-P1A), filled with sinGFP4a Q9E",response,[2]; [5],24000
same,response,[2]; [6],3500
same,percent of parent,[2]; signal at rim of FG particles,120%
same,percent of parent,[2]; [7],14%
same,percent of parent,[3]; signal at rim of FG particles,89%
same,percent of parent,[3]; [7],13%
same,response,[4]; [5],26000
same,response,[4]; [6],3400
"conical CLPs (capsid-like particles) of wild-type CA (CA-P1A), filled with sinGFP4a R97K",percent of parent,[2]; signal at rim of FG particles,90%
same,percent of parent,[2]; [7],20%
same,response,[4]; [5],20000
same,response,[4]; [6],5000

# — paper PMC12700808
